Target: T1, DIS3L2 (rDIS3L2, wild type) (Homo sapiens, UniProt Q8IYB7 1-885)
T1 sequence: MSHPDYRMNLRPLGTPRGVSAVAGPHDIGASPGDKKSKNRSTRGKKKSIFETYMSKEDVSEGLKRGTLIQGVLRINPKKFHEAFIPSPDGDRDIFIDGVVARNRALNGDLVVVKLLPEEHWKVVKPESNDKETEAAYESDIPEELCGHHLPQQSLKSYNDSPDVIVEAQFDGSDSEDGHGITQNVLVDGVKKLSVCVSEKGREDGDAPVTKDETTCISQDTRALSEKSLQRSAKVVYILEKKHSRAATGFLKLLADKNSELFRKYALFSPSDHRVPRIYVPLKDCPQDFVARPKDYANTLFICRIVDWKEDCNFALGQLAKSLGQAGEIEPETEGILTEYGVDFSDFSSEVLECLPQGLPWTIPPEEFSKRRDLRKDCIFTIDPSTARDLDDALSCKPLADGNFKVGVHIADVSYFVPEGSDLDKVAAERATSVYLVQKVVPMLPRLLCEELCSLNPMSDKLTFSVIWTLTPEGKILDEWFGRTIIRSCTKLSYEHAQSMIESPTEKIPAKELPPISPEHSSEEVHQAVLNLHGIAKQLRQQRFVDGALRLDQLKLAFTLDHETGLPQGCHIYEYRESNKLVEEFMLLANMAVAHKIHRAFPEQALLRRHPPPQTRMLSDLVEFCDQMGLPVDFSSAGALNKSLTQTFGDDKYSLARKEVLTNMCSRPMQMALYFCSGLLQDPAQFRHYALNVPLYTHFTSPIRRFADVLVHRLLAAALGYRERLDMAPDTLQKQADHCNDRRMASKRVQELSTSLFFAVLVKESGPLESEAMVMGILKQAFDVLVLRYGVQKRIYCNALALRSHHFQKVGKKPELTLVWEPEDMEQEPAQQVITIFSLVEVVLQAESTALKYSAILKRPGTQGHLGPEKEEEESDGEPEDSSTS
Experiment: EMSA

UUUUUUUUUUUUUUUUUUUUUUUUUUUUUU (ssRNA) [U30 RNA]: binds.
